Source: article PMC13426413 (Science Advances, 2026)

Target: human Hsp90α (residues 1–732) (human, UniProt P07900 1-732)
Test: ITC

B1: Tom70:Orf9b_(Helix) complex (complex)
chain 1: MNSLDRAQAAKNKGNKYFKAGKYEQAIQCYTEAISLCPTEKNVDLSTFYQNRAAAFEQLQKWKEVAQDCTKAVELNPKYVKALFRRAKAHEKLDNKKECLEDVTAVCILEGFQNQQSMLLADKVLKLLGKEKAKEKYKNREPLMPSPQFIKSYFSSFTDDIISQPMLKGEKSDEDKDKEGEALEVKENSGYLKAKQYMEEENYDKIISECSKEIDAEGKYMAEALLLRATFYLLIGNANAAKPDLDKVISLKEANVKLRANALIKRGSMYMQQQQPLLSTQDFNMAADIDPQNADVYHHRGQLKILLDQVEEAVADFDECIRLRPESALAQAQKCFALYRQAYTGNNSSQIQAAMKGFEEVIKKFPRCAEGYALYAQALTDQQQFGKADEMYDKCIDLEPDNATTYVHKGLLQLQWKQDLDRGLELISKAIEIDNKCDFAYETMGTIEVQRGNMEKAIDMFNKAINLAKSEMEMAHLYSLCDAAHAQTEVAKKYGLKPPTL
chain 2: IILRLGSPLSLNMARKTLNSLEDKAFQLTPIAVQY
- binding result: binds
